Laboratory results taken from patent publication US7704703B2, “Arf and Hdm2 interaction domains and the methods of use thereof” (St. Jude Children's Research Hospital, Inc., priority 2002, dated 2010).
“Also recorded” adds a separate entry of the source. Blank lines part the entries; values can stand above or below the substance they belong to.

Assays:
mArfN37 = biological target: T1, mArfN37 (Mus musculus, UniProt Q64364); test: Surface plasmon resonance: Hdm2 fragments and peptides binding to immobilized His-tagged mArfN37
T1 construct: mouse p19^Arf corresponding to residues 1-37 (mArfN37); made in house; host or cells: E. coli BL21(DE3) (purified 'in a similar manner' to the Hdm2 fragments)
T1 sequence (Q64364 1-37 limits assumed): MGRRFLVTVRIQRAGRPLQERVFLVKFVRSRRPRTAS
Experimental: Surface Plasmon Resonance. Binding studies were performed using a Biacore 3000 surface plasmon resonance (SPR) instrument (Biacore, Inc.). A Tetra-His™ Antibody (Qiagen, Inc.; Cat. #34670) was covalently attached to a carboxymethylated gold surface (C-1 chip; Biacore, Inc.). The carboxymethyl groups on the surface were activated with N-ethyl-N′-(3-dimethylaminopropyl) carbodiimide (EDC) and N-hydroxysuccinimide (NHS) and the antibody was attached at pH 7.4 in 20 mM sodium phosphate buffer, 150 mM NaCl (PBS). Reactive sites remaining on the surface were blocked by reaction with ethanolamine. […] Binding was measured by flowing the non-His-tagged analyte through the reference and ligand-containing flow cells in sequence. […] Changes in the SPR response due to solvent differences and the injection process were monitored by injection of HBS-N buffer alone. […]
Small segments of Arf and Hdm2 participate in Arf/Hdm2 interactions. […] However, because mArfN37 is a relatively small polypeptide, it was determined whether it could bind a correspondingly small segment of Hdm2. To test this hypothesis and to monitor Arf/Hdm2 binding reactions quantitatively, Hdm2 constructs were prepared spanning amino acids 210-304 of SEQ ID NO:8 and 210-275 of SEQ ID NO:8 and then it was determined whether they could bind mArfN37 using surface plasmon resonance (SPR). […]

GFP-p19^Arf = biological target: T2, GFP-p19^Arf (Mus musculus, UniProt Q64364); test: Microinjection and live cell imaging of Texas Red labeled Hdm2 constructs in NIH 3T3 cells lacking Arf; assay type: cell-based; settings: for localization after nuclear microinjection in the presence of GFP-p19^Arf: transfected with GFP-p19^Arf
T2 construct: expressed in transfected cells; host or cells: NIH 3T3 Arf-/- cells
T2 sequence (Q64364 1-169): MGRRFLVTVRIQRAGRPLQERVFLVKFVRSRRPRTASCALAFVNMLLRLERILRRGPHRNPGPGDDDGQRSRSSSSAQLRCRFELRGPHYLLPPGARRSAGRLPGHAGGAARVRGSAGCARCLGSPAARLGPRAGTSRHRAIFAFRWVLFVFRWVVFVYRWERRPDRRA
Experimental: Fluorescent labeling. Proteins for fluorescence microimaging studies were covalently modified using an amine-reactive, sulfosuccinimidyl ester of TEXAS RED® (C31H29S2N2O6Cl1) (Molecular Probes, Inc., Cat. # C-1171). In brief, purified Hdm2-derived proteins were dialyzed into 100 mM sodium bicarbonate buffer, pH 8.3 at 2-4 mg/ml. The Texas Red™ dye was dissolved in dimethylsulfoxide at 10 mg/ml. Protein and dye 3:1 (vol:vol) were reacted for 1 hour at room temperature followed by purification using size-exclusion chromatography (NAP 5 G-25 columns, Amersham Pharmacia Biotech, Inc.). Labeled protein bands migrated more slowly than unlabeled protein in SDS-polyacrylamide gels consistent with the covalent attachment of dye.
Cell culture and microinjection. NIH 3T3 Arf^−/− cells passage 10-15 were cultured in Dulbecco's modified Eagle's medium (Dulbecco's modified Eagle's medium (DMEM); Gibco-Invitrogen, Inc.), 10% fetal bovine serum (FBS) at 37° C., 7% CO2. […] GFP-Arf positive cells were then located and co-injected with TEXAS RED® (C31H29S2N2O6C1 labeled Hdm2 polypeptides (2 mg/ml in 20 mM Tris-HCl, 100 mM NaCl, pH 7.0) using a Micromanipulator 5171/Transjector 5246 (Eppendorf, AG) in media supplemented with 10 mM HEPES, pH 7.2 to buffer cell media during injection and imaging. Representative cells were imaged over time. An Axiovert 135 TV inverted fluorescence microscope with an automated stage controller (Carl Zeiss, Inc.) and circulating water bath heater (Fisher) was used for both microinjection and imaging. Images were acquired with a Zeiss 40×NA=1.30 oil objective and MicroMax CCD camera (Princeton Instruments Inc.) operated with MetaMorph Version 4.01 imaging software. […]
TEXAS RED® (C31H29S2N2O6Cl1) labeled Hdm2 deletion constructs containing residues 210-275, 210-304, 277-350 and 277-491 were individually injected into cells in the absence or presence of the GFP-p19^Arf fusion protein. […] The use of live cell imaging also allowed the kinetics of localization to be monitored. […]

Hdm2 210-275 = biological target: T3, Hdm2 210-275 (Homo sapiens, UniProt Q00987); test: CD-based binding assay, induction of β-strand secondary structure with Hdm2 210-275
T3 construct: poly-His (thrombin cleavable, pET28a) (cleaved yes); made in house; host or cells: E. coli BL21(DE3)
T3 sequence (Q00987 210-275): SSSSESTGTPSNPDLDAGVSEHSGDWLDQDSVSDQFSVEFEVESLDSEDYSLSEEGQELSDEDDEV
Experimental: Circular Dichroism. Spectra were recorded at 25° C. using an Aviv Model 62A DS circular dichroism spectropolarimeter (Aviv Instruments, Inc.) equipped with a thermoelectric temperature control unit. All samples were prepared in 10 mM Tris-HCl, pH 7.0 at 0.02-0.2 mM as determined by amino acid analysis. Spectra were recorded using 1 mm quartz cuvettes and reported spectra are the average of 10 scans over the range […]. Melting experiments were recorded in 10 mm quartz cuvettes with active stirring. The signal at 216 nm (β strand minimum) was used to monitor structural changes and the signal was averaged over 15 sec. The sample temperature was increased in 1° C. steps.
β-strand secondary structure forms when Arf and Hdm2 interact. […] This structural transition is induced when mArfN37 is added to an Hdm2 fragment and when an Hdm2 fragment is added to mArfN37. […] In contrast, the uncomplexed species elute at times consistent with monodisperse, conformationally extended polypeptides. Second, NMR resonances for ^15N-mArfN37 or ^15N-Hdm2 210-304 (and ^15N-Hdm2 210-275) are broadened beyond detection when an unlabeled form of the appropriate binding partner is added to the solution. At mArfN37:Hdm2 210-304 (or mArfN37:Hdm2 210-275) molar ratios that produce maximal β-strand secondary structure based on ellipticity at 200 nm using CD, resonances cannot be observed for the isotope-labeled component of Arf/Hdm2 mixtures. Further, the NMR spectra are consistent with slow exchange between the free and bound states.
Characterization of Arf Hdm2 assemblies. As discussed above, the addition of mArfN37 to Hdm2 210-304 results in the formation of supramolecular assemblies comprised of β-strands. Stepwise addition of sub-stoichiometric amounts of mArfN37 to Hdm2 210-304 increased β-strand secondary structure content as judged by the change in ellipticity at 200 nm using CD. […] The binding of mArfN37 to Hdm2 210-304, as monitored in this way, is saturable. Similar results were obtained when mArfN37 was mixed with the shorter fragment of Hdm2, Hdm2 210-275. Further, saturable binding is also observed when the Hdm2 fragments were added to an excess of mArfN37. These findings indicate that there are a limited number of binding sites for mArfN37 within Hdm2 210-304 and that discreet structures (containing β-strands) form when mArfN37 and Hdm2 210-304 (or 210-275) are mixed. […] Similar behavior is observed when mArfN37 binds Hdm2 210-275.

Substance: Hdm2 210-304: Arf-binding domain of Hdm2, amino acids 210-304 of SEQ ID NO:8
- binding of Hdm2 fragment to His-tagged mArfN37 immobilized on SPR biosensor surface (mArfN37; Hdm2 protein fragments as analyte, no binding to control surface): bind tightly
- localization after nuclear microinjection in the absence of Arf (GFP-p19^Arf; no GFP-p19^Arf): evenly dispersed in the nucleoplasm
- localization after nuclear microinjection in the presence of GFP-p19^Arf (GFP-p19^Arf): co-localized within nucleoli; also recorded: nucleolar localization

Substance: human A2 (16-30): peptide containing the second human Arf motif, residues 16-30 (GPPRVRVFVVHIPRL)
- induction of β-strand secondary structure/assembly when mixed with Hdm2 210-275 (CD) (Hdm2 210-275): fail to induce β-strand assembly

Substance: peptide containing residues 290-304: short synthetic Hdm2 peptide, residues 290-304 of SEQ ID NO:8 (SFEEDPEISLADYWK; listed as Homo sapiens)
- relative affinity of Hdm2 synthetic peptides for mArfN37 (SPR) (mArfN37; 15 amino acid peptides of the central region of Hdm2): modest affinity

Now from value to substance:

- localization after nuclear microinjection in the presence of GFP-p19^Arf (GFP-p19^Arf): nucleolar localization
Substance: Hdm2 277-491: Texas Red labeled Hdm2 deletion construct containing residues 277-491

- induction of β-strand secondary structure/assembly when mixed with Hdm2 210-275 (CD) (Hdm2 210-275): interaction
Substance: MVRRFLVTLRIRRA (listed as Homo sapiens) [human A1 (1-14), peptide of the first Arf motif of human p14^Arf, residues 1-14]

- induction of β-strand secondary structure/assembly when mixed with Hdm2 210-275 (CD) (Hdm2 210-275): interaction
Substance: mouse A1 (1-14): peptide corresponding to the first mouse Arf motif, residues 1-14 (MGRRFLVTVRIQRA)

- induction of β-strand secondary structure/assembly when mixed with Hdm2 210-275 (CD) (Hdm2 210-275): fail to induce β-strand assembly
Substance: mouse A2 (16-30): peptide corresponding to the second mouse Arf motif, residues 16-30 (RPLQERVFLVKFVRS)
